Test results reported in patent US20060228358A1 (UCB, published 2006).
Changes are numbered by the printed parent chain. Where “and” joins values, the source holds several entries; their conditions need not be identical. Equal entries are not always repeated. Blank lines part the entries; values can stand above or below the binder they belong to.

Key:
recombinant human IL-1β [1] = molecular target: T1, recombinant human IL-1β (human, UniProt P01584 117-269); test: BIAcore, captured antibody, IL-1β titrated in solution, 25 °C
T1 construct: Only the background speaks of the mature 17 kDa form; also called hIL-1β; interleukin-1β

recombinant human IL-1β [2] = molecular target: T1, recombinant human IL-1β; test: BIAcore, antibody captured by anti-hFc, IL-1β titrated in solution, 25 °C
Method: The assay format used anti-IL-1β antibody captured by anti-hFc with a titration of recombinant human IL-1β in the solution phase. Mouse anti-human IgG, Fc fragment-specific (Celltech) was immobilised on flowcell 2 of a CM5 Sensor Chip via amine coupling chemistry to a level of 12757RU. A blocked reference surface was prepared on flowcell 1 by activation with EDC/NHS and deactivation with ethanolamine using the same volumes as for flowcell 2. HBS-EP buffer (10 mM HEPES pH 7.4, 0.15 M NaCl, 3 mM EDTA, 0.005% Surfactant P20, Biacore AB) was used as the running buffer and assays were performed at 25° C. Anti-IL-1β antibody was passed over flowcells 1 and 2 and captured on the immobilised anti-hFc surface using a flowrate of 10 μl/min. IL-1β from 400-0 nM was injected over the blocked and captured anti-IL-1β antibody surface using a flowrate of 30 μl/min for 3 min. The anti-hFc surface was regenerated with a 30 μl injection of 40 mM HCl. Kinetic parameters were calculated using BIAevaluation 3.1 software.

recombinant human IL-1β [3] = molecular target: T1, recombinant human IL-1β; test: BIAcore, Fab′ captured by anti-hF(ab′)2, IL-1β titrated in solution, 25 °C
Method: Affinipure goat anti-human IgG, F(ab′)₂ fragment-specific (Jackson ImmunoResearch Code 109-005-097) was immobilised on flowcell 2 of a CM5 Sensor Chip via amine coupling chemistry to a level of 13025RU. A blocked reference surface was prepared on flowcell 1 by activation with EDC/NHS and deactivation with ethanolaomine using the same volumes as for flowcell 2. HBS-EP buffer (10 mM HEPES pH 7.4, 0.15 M NaCl, 3 mM EDTA, 0.005% Surfactant P20, Biacore AB) was used as the running buffer and assays were performed at 25° C. Anti-IL-1β antibody was passed over flowcells 1 and 2 and captured on the immobilised anti-hF(ab′)₂ surface using a flowrate of 10 μl/min. IL-1β (Strathmann) from 400-0 nM was injected over the blocked and captured anti-IL-1β antibody surface using a flowrate of 30 μl/min for 3 min. The anti-hF(ab′)₂ surface was regenerated with a 30 μl injection of 40 mM HCl followed by a 15 μl injection of 5 mM NaOH. Kinetic parameters were calculated using BIAevalutation 3.1 software.

B4: CDR-grafted IC8 antibody gH1gL2 (antibody, V domains shown)
VH: EVQLVESGGGLVQPGGSLRLSCAASGFDFSRYDMSWVRQAPGKRLEWVAYISSGGGSTYFPDTVKGRFTISRDNAKNTLYLQMNSLRAEDTAMYYCARQNKKLTWFDYWGQGTLVTVSS
VL: DIQMTQSPSSLSASVGDRVTITCRTSGNIHNYLTWYQQKPGKAPQLLVYNAKTLADGVPSRFSGSGSGTQFTLTISSLQPEDFANYYCQHFWSLPFTFGQGTKVEIKR
notes: Human gamma-4 heavy and kappa light constant regions (pMRR14 and pMRR10), expressed in CHO-L761 cells
Kd (recombinant human IL-1β [2]): 0.34 nM

B5: CDR-grafted IC8 antibody gH3gL2 (antibody, V domains shown)
VH: B4 VH with M93V
VL: B4 VL
notes: as for B4
Kd (recombinant human IL-1β [2]): 0.32 nM

B6: CDR-grafted IC8 antibody gH3gL1 (antibody, V domains shown)
VH: B4 VH with M93V
VL: B4 VL with P40L
notes: as for B4
Kd (recombinant human IL-1β [2]): 0.28 nM

B7: CDR-grafted IC8 antibody gH2gL3 (antibody, V domains shown)
VH: B4 VH with R44G
VL: B4 VL with V48I
notes: as for B4
Kd (recombinant human IL-1β [2]): 1.14 nM and 1.07 nM

B8: CDR-grafted IC8 antibody gH1gL3 (antibody, V domains shown)
VH: B4 VH
VL: B4 VL with V48I
notes: as for B4
Kd (recombinant human IL-1β [2]): 0.3 nM

B9: CDR-grafted IC8 antibody gH3gL3 (antibody, V domains shown)
VH: B4 VH with M93V
VL: B4 VL with V48I
notes: Human gamma-4 heavy and kappa light constant regions (pMRR14 and pMRR10), expressed in CHO-L761 cells; also called gL3gH3
Kd (recombinant human IL-1β [2]): 0.28 nM

B10: CDR-grafted IC8 antibody gH2gL1 (antibody, V domains shown)
VH: B4 VH with R44G
VL: B4 VL with P40L
notes: as for B4
Kd (recombinant human IL-1β [2]): 1.27 nM

B11: CDR-grafted IC8 antibody gH1gL1 (antibody, V domains shown)
VH: B4 VH
VL: B4 VL with P40L
notes: as for B4
Kd (recombinant human IL-1β [2]): 0.35 nM

Second part, the binder after the results:

Kd (recombinant human IL-1β [1]): 0.3 nM
B1: murine monoclonal antibody IC8 (antibody, V domains shown)
VH: B4 VH with E1D, Q13K, R19K, A40T, G42E, S85N, R87Q, A88S, Y94F
VL: DIQMTQSPASLSASVGETVTITCRTSGNIHNYLTWYQQNLGKSPQLLVYNAKTLADGVPSRFSGSGSGTQFSLTINSLQPEDFGNYYCQHFWSLPFTFGSGTKLEIKR
notes: Mouse monoclonal antibody from a hybridoma; also called mIC8; donor antibody

Kd (recombinant human IL-1β [2]): 0.38 nM
B2: double chimeric IC8 antibody molecule cHcL (antibody, V domains shown)
VH: B4 VH with E1D, Q13K, R19K, A40T, G42E, S85N, R87Q, A88S, Y94F
VL: B1 VL
notes: Murine IC8 V-regions on human gamma-4 heavy and human kappa light constant regions (vectors pMRR14 and pMRR10), expressed in CHO-L761 cells

Kd (recombinant human IL-1β [3]): 0.32 nM
B3: gH3gL3 Fab′ (E. coli-produced) (Fab, V domains shown)
VH: B4 VH with M93V
VL: B4 VL with V48I
notes: Unpegylated Fab′ with a modified hinge, purified from E. coli periplasm; also called gIC8 Fab′; IC8gL3gH3 Fab′
